In patent US20170283479:

What was measured:
[1] = molecular target: analogs where the A-chain is derived from the sequence of IGF-1
[2] = molecular target: insulin analogs where the A-chain is derived from the native insulin sequence

B1: rDNA rat insulin-specific degrading enzyme (IDE) (protein)
chain: MNNPAIQRIEDHIVKSPEDKREYRGLELANGIKVLLISDPTTDKSSAALDVHIGSLSDPPNIPGLSHFCEHMLFLGTKKYPKENEYSQFLSEHAGSSNAFTSGEHTNYYFDVSHEHLEGALDRFAQFFLCPLFDASCKDREVNAVDSEHEKNVMNDAWRLFQLEKATGNPKHPFSKFGTGNKYTLETRPNQEGIDVREELLKFHSTYYSSNLMAICVLGRESLDDLTNLVVKLFSEVENKNVPLPEFPEHPFQEEHLKQLYKIVPIKDIRNLYVTFPIPDLQQYYKSNPGHYLGHLIGHEGPGSLLSELKSKGWVNTLVGGQKEGARGFMFFIINVDLTEEGLLHVEDIILHMFQYIQKLRAEGPQEWVFQECKDLNAVAFRFKDKERPRGYTSKIAGKLHYYPLNGVLTAEYLLEEFRPDLIDMVLDKLRPENVRVAIVSKSFEGKTDRTEQWYGTQYKQEAIPEDVIQKWQNADLNGKFKLPTKNEFIPTNFEILALEKDATPYPALIKDTAMSKLWFKQDDKFFLPKACLNFEFFSPFAYVDPLHCNMAYLYLELLKDSLNEYAYAAELAGLSYDLQNTIYGMYLSVKGYNDKQPILLKKITEKMATFEIDKKRFEIIKEAYMRSLNNFRAEQPHQHAMYYLRLLMTEVAWTKDELKEALDDVTLPRLKAFIPQLLSRLHIEALLHGNITKQAALGVMQMVEDTLIEHAHTKPLLPSQLVRYREVQLPDRGWFVYQRRNEVHNNCGIEIYYQTDMQSTSENMFLELFCQIISEPCFNTLRTKEQLGYIVFSGPRRANGIQGLRFIIQSEKPPHYLESRVEAFLITMEKAIEDMTEEAFQKHIQALAIRRLDKPKKLSAECAKYWGEIISQQYNYDRDNIEVAYLKTLSKDDIIKFYKEMLAVDAPRRHKVSVHVLAREMDSCPVVGEFPSQNDINLSEAPPLPQPEVIHNMTEFKRGLPLFPLVKPHINFMAAKL
[1]
  cleavage by IDE (HPLC and residual insulin receptor phosphorylation activity): appear to be extremely resistant to proteolysis
[2]
  cleavage by IDE (HPLC and residual insulin receptor phosphorylation activity): extremely robust and easily detected
